According to patent publication US20160052979:

Legend:
Purα (PURA) = assay: EMSA; conditions: unit not stated, densitometry
TZIP (synthetic) = system: T1, TZIP (synthetic); assay: EMSA; conditions: unit not stated, densitometry
T1 sequence: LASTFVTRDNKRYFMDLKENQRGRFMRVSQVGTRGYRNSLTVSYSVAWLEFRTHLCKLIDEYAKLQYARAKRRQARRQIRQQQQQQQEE

ALS ssDNA (C9ORF72 GGGGCC hexanucleotide repeat)
Kd (Purα (PURA); 5 mM DTT, 5 mM EDTA, 0.5% Tween 20): 16 nM
Kd (TZIP (synthetic); printed 5.5×1010, exponent sign lost, 5 mM DTT, 5 mM EDTA, 0.5% Tween 20, TZIP alters Purα shift and stimulates …): 0.55 nM

FXS ssDNA (FMR1 G-rich trinucleotide expanded repeat)
Kd (Purα (PURA); printed 1.9×109, exponent sign lost): 1.9 nM
Kd (TZIP (synthetic); printed 9.5×1010, exponent sign lost, TZIP stimulates Purα binding): 0.95 nM
